Results on one substance are retold here after PMC7476758, “Underground isoleucine biosynthesis pathways in E. coli” (eLife, 2020).

The test system of one data set is N[C@@H](CO)C(=O)O. The data set can be described thus: Michaelis-Menten kinetics of purified mutant enzyme, DTNB assay (KM). It is filed as biochemical, Escherichia coli. To be noted: mutation far from the active site.
Data set [1] deals with CC(=O)SCCNC(=O)CCNC(=O)[C@H](O)C(C)(C)COP(=O)(O)OP(=O)(O)OC[C@H]1O[C@@H](n2cnc3c(N)ncnc32)[C@H](O)[C@@H]1OP(=O)(O)O. The data set can be described thus: Michaelis-Menten kinetics of purified mutant enzyme, DTNB assay of released CoA (KM). It is filed as biochemical, Escherichia coli. To be noted: mutation far from the active site.

Turning to “serine acetyltransferase (CysE) (Escherichia coli K-12; A33T)”, the Km (as a rule, the substrate concentration at which the rate is half of its maximum) stood at 500 ± 200 µM with N[C@@H](CO)C(=O)O and 5000 ± 2000 µM in data set [1].
